The numbers were not newly measured in publication PMC3078979, which cites them from elsewhere.

The target in this data set is Gamide (amidated gastrin) (Homo sapiens) (UniProt P01350). Put plainly: ultracentrifugation.

For the substance apo-transferrin (from UniProt P02787), the Kd (in general, the concentration at which binding is half-saturated) was 6.4 µM.
